Reference: PMC8497999 (iScience, 2021)
Where a chain is given by its changes, count along the chain named.

How the values were obtained:
Assay in all cases: SEC
[1] = target: T1, ACAD9-His6 E426Q (human, UniProt Q9H845 38-621, E426Q)
T1 sequence: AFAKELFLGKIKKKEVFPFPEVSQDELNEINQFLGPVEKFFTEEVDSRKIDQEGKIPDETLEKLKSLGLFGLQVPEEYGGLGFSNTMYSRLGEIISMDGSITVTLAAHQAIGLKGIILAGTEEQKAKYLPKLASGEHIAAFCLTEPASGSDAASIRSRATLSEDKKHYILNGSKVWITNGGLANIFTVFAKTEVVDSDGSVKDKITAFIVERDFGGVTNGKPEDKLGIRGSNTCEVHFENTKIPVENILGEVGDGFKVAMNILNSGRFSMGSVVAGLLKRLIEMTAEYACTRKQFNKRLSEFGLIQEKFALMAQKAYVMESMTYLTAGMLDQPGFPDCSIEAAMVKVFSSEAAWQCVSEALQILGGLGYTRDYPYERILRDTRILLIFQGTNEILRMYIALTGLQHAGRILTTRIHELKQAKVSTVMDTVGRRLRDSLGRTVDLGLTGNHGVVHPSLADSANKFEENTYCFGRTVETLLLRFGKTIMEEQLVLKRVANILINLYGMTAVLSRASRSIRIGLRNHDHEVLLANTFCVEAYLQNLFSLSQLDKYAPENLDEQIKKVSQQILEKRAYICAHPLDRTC

[2] = target: T2, ACAD9-His6 R518H (human, UniProt Q9H845 38-621, R518H)
T2 sequence: T1 sequence with Q389E, R481H

[3] = target: T3, ACAD9-His6 R469W (human, UniProt Q9H845 38-621, R469W)
T3 sequence: T1 sequence with Q389E, R432W

[4] = target: the molecule itself

B1: His6-ECSIT (mature human mitochondrial ECSIT with N-terminal His tag) (natural protein)
chain: SSEQSLVPSPPEPRQRPTKALVPFEDLFGQAPGGERDKASFLQTVQKFAEHSVRKRGHIDFIYLALRKMREYGVERDLAVYNQLLNIFPKEVFRPRNIIQRIFVHYPRQQECGIAVLEQMENHGVMPNKETEFLLIQIFGRKSYPMLKLVRLKLWFPRFMNVNPFPVPRDLPQDPVELAMFGLRHMEPDLSARVTIYQVPLPKDSTGAADPPQPHIVGIQSPDQQAALARHNPARPVFVEGPFSLWLRNKCVYYHILRADLLPPEEREVEETPEEWNLYYPMQLDLEYVRSGWDNYEFDINEVEEGPVFAMCMAGAHDQATMAKWIQGLQETNPTLAQIPVVFRLAGSTRELQTSSAGLEEPPLPEDHQEEDDNLQRQQQGQS
B1: binds [1]; binds [2]; binds [3]. For the same binder, the “stoichiometry N” value [4] was 2.
